# Measurements published in the supplement of paper PMC9112550, “Optimization of the antimicrobial peptide Bac7 by deep mutational scanning” (BMC Biology, 2022).
# System: Escherichia coli TOP10
# Assay: shrunken log2 fold change of peptide-encoding DNA abundance (4.5 h post-induction vs induction); higher = less antimicrobial activity (less host growth inhibition)
# Settings: time post-induction: 4.5 h; library: site-saturation at positions 5, 18, 19, 20
# 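Also: peptides expressed intracellularly from a pBAD plasmid library in pooled LB shake-flask culture, induced with 0.3% L-arabinose, DNA abundance read by NGS, three biological replicates, DESeq2 with apeglm shrinkage.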
row,Sequence,shrunken log2 fold change
1,RRIRRRPPRLPRPRPRPTADPRP,0.808
2,RRIRRRPPRLPRPRPRPTAKPRP,0.371
3,RRIRRRPPRLPRPRPRPTAWPRP,0.288
4,RRIRRRPPRLPRPRPRPTCKPRP,0.0874
5,RRIRRRPPRLPRPRPRPTCWPRP,0.225
6,RRIRRRPPRLPRPRPRPTDFPRP,-0.00455
7,RRIRRRPPRLPRPRPRPTDTPRP,-0.11
8,RRIRRRPPRLPRPRPRPTEIPRP,0.299
9,RRIRRRPPRLPRPRPRPTESPRP,0.121
10,RRIRRRPPRLPRPRPRPTFPPRP,0.444
11,RRIRRRPPRLPRPRPRPTFSPRP,0.185
12,RRIRRRPPRLPRPRPRPTGHPRP,0.236
13,RRIRRRPPRLPRPRPRPTGIPRP,0.872
14,RRIRRRPPRLPRPRPRPTHMPRP,0.577
15,RRIRRRPPRLPRPRPRPTIYPRP,-0.1
16,RRIRRRPPRLPRPRPRPTKKPRP,0.253
17,RRIRRRPPRLPRPRPRPTLHPRP,0.534
18,RRIRRRPPRLPRPRPRPTLRPRP,0.712
19,RRIRRRPPRLPRPRPRPTNIPRP,-0.304
20,RRIRRRPPRLPRPRPRPTNRPRP,0.282
21,RRIRRRPPRLPRPRPRPTPYPRP,0.545
22,RRIRRRPPRLPRPRPRPTQIPRP,-0.0829
23,RRIRRRPPRLPRPRPRPTSIPRP,-0.107
24,RRIRRRPPRLPRPRPRPTSQPRP,0.249
25,RRIRRRPPRLPRPRPRPTSSPRP,0.04

row,Sequence,shrunken log2 fold change
1,RRIRRRPPRLPRPRPRPTYEPRP,-0.21
2,RRIRRRPPRLPRPRPRPVAMPRP,0.342
3,RRIRRRPPRLPRPRPRPVARPRP,0.896
4,RRIRRRPPRLPRPRPRPVDEPRP,0.0882
5,RRIRRRPPRLPRPRPRPVDHPRP,0.34
6,RRIRRRPPRLPRPRPRPVDNPRP,0.0838
7,RRIRRRPPRLPRPRPRPVDTPRP,0.0438
8,RRIRRRPPRLPRPRPRPVFPPRP,0.488
9,RRIRRRPPRLPRPRPRPVFWPRP,0.369
10,RRIRRRPPRLPRPRPRPVGFPRP,0.362
11,RRIRRRPPRLPRPRPRPVIRPRP,0.1
12,RRIRRRPPRLPRPRPRPVIYPRP,0.0526
13,RRIRRRPPRLPRPRPRPVKSPRP,0.625
14,RRIRRRPPRLPRPRPRPVLFPRP,0.315
15,RRIRRRPPRLPRPRPRPVPTPRP,0.472
16,RRIRRRPPRLPRPRPRPVQLPRP,-0.0275
17,RRIRRRPPRLPRPRPRPVSKPRP,0.24
18,RRIRRRPPRLPRPRPRPVSSPRP,0.0647
19,RRIRRRPPRLPRPRPRPVSTPRP,-0.134
20,RRIRRRPPRLPRPRPRPVTHPRP,0.598
21,RRIRRRPPRLPRPRPRPVTKPRP,0.28
22,RRIRRRPPRLPRPRPRPVVVPRP,0.186
23,RRIRRRPPRLPRPRPRPVWHPRP,0.278
24,RRIRRRPPRLPRPRPRPVWNPRP,0.0425
25,RRIRRRPPRLPRPRPRPVYYPRP,-0.223

row,Sequence,shrunken log2 fold change
1,RRIRRRPPRLPRPRPRPWCAPRP,0.419
2,RRIRRRPPRLPRPRPRPWDHPRP,0.0105
3,RRIRRRPPRLPRPRPRPWFHPRP,0.0067
4,RRIRRRPPRLPRPRPRPWFRPRP,0.0331
5,RRIRRRPPRLPRPRPRPWGAPRP,0.483
6,RRIRRRPPRLPRPRPRPWGKPRP,-0.0259
7,RRIRRRPPRLPRPRPRPWGNPRP,0.352
8,RRIRRRPPRLPRPRPRPWHAPRP,0.279
9,RRIRRRPPRLPRPRPRPWHIPRP,-0.246
10,RRIRRRPPRLPRPRPRPWIPPRP,-0.129
11,RRIRRRPPRLPRPRPRPWLEPRP,0.0128
12,RRIRRRPPRLPRPRPRPWLNPRP,-0.0295
13,RRIRRRPPRLPRPRPRPWLTPRP,-0.245
14,RRIRRRPPRLPRPRPRPWMEPRP,-0.137
15,RRIRRRPPRLPRPRPRPWMSPRP,0.118
16,RRIRRRPPRLPRPRPRPWNHPRP,-0.0953
17,RRIRRRPPRLPRPRPRPWNQPRP,0.0251
18,RRIRRRPPRLPRPRPRPWQYPRP,0.0419
19,RRIRRRPPRLPRPRPRPWRAPRP,0.181
20,RRIRRRPPRLPRPRPRPWSNPRP,-0.226
21,RRIRRRPPRLPRPRPRPWSRPRP,0.0777
22,RRIRRRPPRLPRPRPRPWTTPRP,0.201
23,RRIRRRPPRLPRPRPRPWWTPRP,0.0815
24,RRIRRRPPRLPRPRPRPWYHPRP,-0.0689
25,RRIRRRPPRLPRPRPRPYCLPRP,-0.574

row,Sequence,shrunken log2 fold change
1,RRIRRRPPRLPRPRPRPYEHPRP,-0.0324
2,RRIRRRPPRLPRPRPRPYEYPRP,-0.206
3,RRIRRRPPRLPRPRPRPYHLPRP,-0.307
4,RRIRRRPPRLPRPRPRPYIEPRP,-0.338
5,RRIRRRPPRLPRPRPRPYIQPRP,-0.603
6,RRIRRRPPRLPRPRPRPYKEPRP,-0.463
7,RRIRRRPPRLPRPRPRPYKLPRP,-0.669
8,RRIRRRPPRLPRPRPRPYKQPRP,-0.286
9,RRIRRRPPRLPRPRPRPYLSPRP,-0.288
10,RRIRRRPPRLPRPRPRPYMRPRP,0.044
11,RRIRRRPPRLPRPRPRPYMSPRP,-0.054
12,RRIRRRPPRLPRPRPRPYNWPRP,-0.734
13,RRIRRRPPRLPRPRPRPYRDPRP,-0.111
14,RRIRRRPPRLPRPRPRPYRNPRP,0.0114
15,RRIRRRPPRLPRPRPRPYSKPRP,-0.129
16,RRIRRRPPRLPRPRPRPYVGPRP,-0.00208
17,RRIRRRPPRLPRPRPRPYVNPRP,-0.0793
18,RRIRRRPPRLPRPRPRPYVSPRP,-0.00885
19,RRIRRRPPRLPRPRPRPYWVPRP,0.0443
20,RRIRRRPPRLPRPRPRPYYQPRP,-0.617
21,RRIRSRPPRLPRPRPRPAAMPRP,0.852
22,RRIRSRPPRLPRPRPRPACWPRP,0.523
23,RRIRSRPPRLPRPRPRPADAPRP,0.0403
24,RRIRSRPPRLPRPRPRPADNPRP,0.00328
25,RRIRSRPPRLPRPRPRPAGIPRP,0.138

row,Sequence,shrunken log2 fold change
1,RRIRSRPPRLPRPRPRPAGRPRP,0.287
2,RRIRSRPPRLPRPRPRPAIEPRP,0.00515
3,RRIRSRPPRLPRPRPRPAIYPRP,-1.04
4,RRIRSRPPRLPRPRPRPAKVPRP,-0.0898
5,RRIRSRPPRLPRPRPRPAKWPRP,0.235
6,RRIRSRPPRLPRPRPRPALAPRP,0.419
7,RRIRSRPPRLPRPRPRPALFPRP,0.069
8,RRIRSRPPRLPRPRPRPALKPRP,0.161
9,RRIRSRPPRLPRPRPRPALPPRP,0.26
10,RRIRSRPPRLPRPRPRPAQPPRP,0.181
11,RRIRSRPPRLPRPRPRPAQYPRP,0.0401
12,RRIRSRPPRLPRPRPRPARTPRP,0.293
13,RRIRSRPPRLPRPRPRPASDPRP,0.407
14,RRIRSRPPRLPRPRPRPASFPRP,-0.226
15,RRIRSRPPRLPRPRPRPATDPRP,0.157
16,RRIRSRPPRLPRPRPRPATQPRP,0.168
17,RRIRSRPPRLPRPRPRPAYEPRP,0.00308
18,RRIRSRPPRLPRPRPRPAYNPRP,-0.00937
19,RRIRSRPPRLPRPRPRPCARPRP,0.00657
20,RRIRSRPPRLPRPRPRPCGDPRP,-0.0559
21,RRIRSRPPRLPRPRPRPCGLPRP,0.00512
22,RRIRSRPPRLPRPRPRPCGQPRP,0.088
23,RRIRSRPPRLPRPRPRPCHNPRP,-0.364
24,RRIRSRPPRLPRPRPRPCIGPRP,-0.18
25,RRIRSRPPRLPRPRPRPCKPPRP,-0.173

row,Sequence,shrunken log2 fold change
1,RRIRSRPPRLPRPRPRPCKYPRP,-0.0911
2,RRIRSRPPRLPRPRPRPCLHPRP,-0.0514
3,RRIRSRPPRLPRPRPRPCLRPRP,-0.385
4,RRIRSRPPRLPRPRPRPCLWPRP,0.0729
5,RRIRSRPPRLPRPRPRPCMGPRP,-0.403
6,RRIRSRPPRLPRPRPRPCNSPRP,-0.0626
7,RRIRSRPPRLPRPRPRPCQQPRP,-0.147
8,RRIRSRPPRLPRPRPRPCQYPRP,0.0376
9,RRIRSRPPRLPRPRPRPCRDPRP,-0.0619
10,RRIRSRPPRLPRPRPRPCRHPRP,0.063
11,RRIRSRPPRLPRPRPRPCRIPRP,-0.263
12,RRIRSRPPRLPRPRPRPCRLPRP,-0.271
13,RRIRSRPPRLPRPRPRPCRQPRP,-0.184
14,RRIRSRPPRLPRPRPRPCSVPRP,0.044
15,RRIRSRPPRLPRPRPRPCTEPRP,-0.241
16,RRIRSRPPRLPRPRPRPCTPPRP,-0.312
17,RRIRSRPPRLPRPRPRPCVMPRP,0.0389
18,RRIRSRPPRLPRPRPRPCWHPRP,-0.245
19,RRIRSRPPRLPRPRPRPCWIPRP,-0.0651
20,RRIRSRPPRLPRPRPRPCWRPRP,0.106
21,RRIRSRPPRLPRPRPRPCYNPRP,-0.513
22,RRIRSRPPRLPRPRPRPDAMPRP,0.83
23,RRIRSRPPRLPRPRPRPDAVPRP,0.32
24,RRIRSRPPRLPRPRPRPDCKPRP,-0.0745
25,RRIRSRPPRLPRPRPRPDCQPRP,0.117
